Data on 5 molecules can be found in patent US20180346564A1 (TEIJIN PHARMA, published 2018).

[ ]: non-standard residue; d: D form. pT = C[C@@H](OP(=O)(O)O)[C@H](N)C(=O)O; pS = N[C@@H](COP(=O)(O)O)C(=O)O

The target in test [1] is T1, Peptide No. 1, pS46, H-GLKE(pS)PLQT-OH (human, SMILES CC(C)C[C@H](NC(=O)CN)C(=O)N[C@@H](CCCCN)C(=O)N[C@@H](CCC(=O)O)C(=O)N[C@@H](COP(=O)(O)O)C(=O)N1CCC[C@H]1C(=O)N[C@@H](CC(C)C)C(=O)N[C@@H](CCC(N)=O)C(=O)N[C@H](C(=O)O)[C@@H](C)O).
T1 peptide: H-GLKE[pS]PLQT-OH
Put plainly: ELISA, coated peptide. Put shortly:
(§1)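 Antibody binding was taken as the absorbance signal. Plates coated with peptides or their bovine serum albumin or keyhole limpet hemocyanin conjugates (1 μg/mL in cold PBS, 50 μL/well, overnight at 4 °C) and blocked with 3% BSA-PBS overnight at 4 °C were incubated with purified antibody at 150 ng/mL for 90 minutes at room temperature. Detection used alkaline phosphatase-labelled goat anti-human IgG (H+L) at 2000-fold dilution for 60 minutes, with pNPP developed for 40 minutes and read at 405 nm (reference 550 nm).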
For orientation: ELISA stands for enzyme-linked immunosorbent assay.

Test [2] concerns the target T2, Peptide No. 2, pS199, H-SGYS(pS)PGSPGC-OH (human, SMILES N[C@@H](CO)C(=O)NCC(=O)N[C@@H](Cc1ccc(O)cc1)C(=O)N[C@@H](CO)C(=O)N[C@@H](COP(=O)(O)O)C(=O)N1CCC[C@H]1C(=O)NCC(=O)N[C@@H](CO)C(=O)N1CCC[C@H]1C(=O)NCC(=O)N[C@@H](CS)C(=O)O).
T2 peptide: H-SGYS[pS]PGSPGC-OH
The test can be described thus: ELISA, coated peptide. The method in brief:
as §1

In test [3] the target is T3, Peptide No. 3, pS202, H-SSPG(pS)PGTPC-OH (human, SMILES C[C@@H](O)[C@H](NC(=O)CNC(=O)[C@@H]1CCCN1C(=O)[C@H](COP(=O)(O)O)NC(=O)CNC(=O)[C@@H]1CCCN1C(=O)[C@H](CO)NC(=O)[C@@H](N)CO)C(=O)N1CCC[C@H]1C(=O)N[C@@H](CS)C(=O)O).
T3 peptide: H-SSPG[pS]PGTPC-OH
The test can be described thus: ELISA, coated peptide. The method in brief: as §1

In test [4] the target is T4, Peptide No. 4, pT212/pS214, H-GCGSPGTPGSRSR(pT)P(pS)LPTPPTREPK-OH (human, phosphothreonine (pT) at peptide position 14 (tau Thr212); phosphoserine (pS) at peptide position 16 (tau Ser214)).
T4 peptide: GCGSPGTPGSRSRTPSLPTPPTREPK
The test can be described thus: ELISA, coated peptide. The method in brief:
as §1

The target in test [5] is T5, Peptide No. 5, pT217, H-GC-GSRSRTPSLP(pT)PPTREPKKVAVV-OH (human, phosphothreonine (pT) at peptide position 13 (tau Thr217)).
T5 peptide: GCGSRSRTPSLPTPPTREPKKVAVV
Put plainly: ELISA, coated peptide. Put shortly:
as §1

Test [6] has as its target T6, Peptide No. 6, pT231, H-KVAVVR(pT)PPKSPS-OH (human).
T6 peptide: H-KVAVVR[pT]PPKSPS-OH
Put plainly: ELISA, coated peptide. The method in brief: as §1

Test [7] has as its target T7, Peptide No. 7, pS396/pS400/pS404, H-GC-RENAKAKTDHGAEIVYK(pS)PVV(pS)GDT(pS)PRHL-OH (human, phosphoserine (pS) at peptide positions 20, 24 and 28 (tau Ser396, Ser400, Ser404)).
T7 peptide: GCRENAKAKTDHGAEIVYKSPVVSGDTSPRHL
The test can be described thus: ELISA, coated peptide. The method in brief: as §1

In test [8] the target is T8, Peptide No. 8, pS412, H-NV(pS)STGSC-OH (human, SMILES CC(C)[C@H](NC(=O)[C@@H](N)CC(N)=O)C(=O)N[C@@H](COP(=O)(O)O)C(=O)N[C@@H](CO)C(=O)N[C@H](C(=O)NCC(=O)N[C@@H](CO)C(=O)N[C@@H](CS)C(=O)O)[C@@H](C)O).
T8 peptide: H-NV[pS]STGSC-OH
The test can be described thus: ELISA, coated peptide. The method in brief:
as §1

Test [9] deals with T9, His-tagged non-phosphorylated tau protein 4R0N (human, UniProt P10636 2-758).
T9 construct: Produced by Escherichia coli; negative control in SPR; also called ATGen Cat. No. ATGP0795
The test can be described thus: SPR Biacore T200, antigen immobilized. On the procedure:
The binding affinities of the hyperphosphorylated tau protein 4R2N (hpTau), non-phosphorylated tau protein 4R0N, monophosphorylated tau peptide 1×P, triphosphorylated tau peptide 3×P, and non-phosphorylated tau peptide Non P with each antibody were measured with an SPR system Biacore T200 (GE Healthcare Japan), in accordance with the instruction manual for evaluation attached to the system.
The His-tagged hpTau or Tau proteins were each immobilized on a sensor chip using an HBS-N buffer (code No. BR-1003-69) as the immobilization reaction solution and allowing a nickel chloride solution to react with the NTA sensor chip for bonding Ni to NTA. Subsequently, the sensor chip was activated with a mixed solution of N-ethyl-N′-(3-dimethylaminopropyl)-carbodiimide hydrochloride (1-ethyl-3-(3-dimethylaminopropyl)carbodiimide hydrochloride: EDC) and N-hydroxysuccinimide (NHS). A solution of each of the His-tagged proteins, adjusted to a concentration of 100 to 500 ng/mL with a 4-(2-hydroxyethyl)-1-piperazineethanesulfonic acid (HEPES) buffer (0.01 M HEPES, 150 mM KCl, 2 mM DTT, 1 mM EDTA, pH 7.2), was applied to the sensor chip, whereby the protein was immobilized on the sensor chip through covalent bonds with the Ni-NTA. The remaining active NHS was blocked with ethanolamine, and Ni ions were removed with an EDTA solution (Ni-affinity amine coupling: see International Publication No. WO2005/022156). The antigen peptides (1×P, 3×P, and Non P) were each immobilized on a sensor chip by activating the NTA sensor chip with a mixed solution of N-ethyl-N′-(3-dimethylaminopropyl)-carbodiimide (EDC) hydrochloride and N-hydroxysuccinimide (NHS), and then applying a solution of the antigen peptide diluted with a 10 mM sodium acetate buffer (pH: 4 to 4.5) to 1 to 10 μM to the sensor chip, whereby the peptide was covalently bound to the sensor chip. The remaining active NHS was blocked with ethanolamine. Thus, sensor chips immobilized respectively with the proteins and peptides mentioned above were produced.
A CAPS buffer (pH 10.5) was applied to these sensor chips at 37° C. to stabilize the protein- or peptide-immobilized surfaces of the sensor chips.
In general terms: Surface plasmon resonance follows binding to a sensor surface in real time, without labels.

T9 sequence (P10636 other isoform, or with tags, fused parts or gaps limits assumed): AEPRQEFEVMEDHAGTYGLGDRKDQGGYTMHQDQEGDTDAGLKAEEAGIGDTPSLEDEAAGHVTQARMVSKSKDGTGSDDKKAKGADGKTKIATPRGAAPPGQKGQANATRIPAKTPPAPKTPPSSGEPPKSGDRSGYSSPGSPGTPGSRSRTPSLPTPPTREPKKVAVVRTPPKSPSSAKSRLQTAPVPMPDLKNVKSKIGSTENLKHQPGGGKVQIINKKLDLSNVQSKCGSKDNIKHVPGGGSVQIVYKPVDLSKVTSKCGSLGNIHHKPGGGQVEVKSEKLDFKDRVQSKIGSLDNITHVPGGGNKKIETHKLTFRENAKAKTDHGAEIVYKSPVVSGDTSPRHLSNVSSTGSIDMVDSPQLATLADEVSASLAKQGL

B1: chimeric antibody Ta1505 (antibody, human IgG1, kappa, V domains shown)
VH: EVQLVESGGGLVQPKGSLKLSCAASGFAFNSFALNWVRQAPGKSLEWVVHIRSKTNNYATFYADSVKDRFTVSRDDSQSMVYLQMNNLKTEDTGIYYCVRRGPRDSWFGYWGQGTLVTVSA
VL: DILMTQTPLSLPVSLGDQASISCRSSQNIVHSNGNTYLEWYLQKPGQSPKVLIYTVSNRFSGVPDRFSGSGSGTDFTLKISRVEAEDLGVYYCFQGSHLPLTFGGGTKLELKR
notes: Mouse Ta1505 variable regions with human IgG1(kappa) constant regions. chim; also called the chimeric antibody; Chimera
Take B1: the binding result in test [1], in test [2], in [3], in test [4], in test [5] and in test [6] was “no binding (tested: OD value <0.5; antibody 150 ng/mL)” throughout. Further, the binding result in test [7] was “no binding (tested: OD value <0.5; antibody 150 ng/mL)”; in [8], “no binding (tested: OD value <0.5; antibody 150 ng/mL)”; in [9], “no binding (tested: 0.2 to 1 nM)”.

B2: humanized antibody L48H11 (antibody, human IgG1, kappa, V domains shown)
VH: EVQLVESGGGLVQPGGSLRLSCAASGFTFSSFALNWVRQAPGKGLEWVGHIRSKTNNYATFYAASVKDRFTVSRDDSQNTAYLQMNSLKTEDTATYYCVRRGPRDSWFGYWGQGTLVTVSS
VL: DIVMTQSPLSLPVTLGDPASISCRSSQNIVHSNGNTYLEWYQQKPGQSPQLLIYTVSNRFSGVPDRFSGSGSGTDFTLKISRVEAEDLGVYYCFQGSHLPLTFGGGTKVEIKR
notes: VL48/VH11, human IgG1/kappa
For the molecule B2, the binding result in test [1], in test [2], in test [3], in [4], in test [5] and in test [6] was “no binding (tested: OD value <0.5; antibody 150 ng/mL)” in each case. Also, the values for the binding result in test [7], in [8] and in test [9] were “no binding (tested: OD value <0.5; antibody 150 ng/mL)”, “no binding (tested: OD value <0.5; antibody 150 ng/mL)” and “no binding (tested: 0.2 to 1 nM)”, respectively.

B3: humanized antibody L15H11 (antibody, human IgG1, kappa, V domains shown)
VH: EVQLVESGGGLVQPGGSLRLSCAASGFTFSSFALNWVRQAPGKGLEWVGHIRSKTNNYATFYAASVKDRFTVSRDDSQNTAYLQMNSLKTEDTATYYCVRRGPRDSWFGYWGQGTLVTVSS
VL: DIVMTQSPLSLPVTLGEPASISCRSSQSIVHSNGNTYLEWYQQKPGQSPRLLIYTVSNRFSGVPDRFSGSGSGTDFTLKISRVEAEDLGVYYCFQGSHLPLTFGGGTKVEIKR
notes: VL15/VH11, human IgG1/kappa
Consider B3, for which the binding result in [1], in test [2], in test [3], in test [4], in test [5] and in test [6] was “no binding (tested: OD value <0.5; antibody 150 ng/mL)” each time. Also, the results for the binding result in test [7], in test [8] and in test [9] were “no binding (tested: OD value <0.5; antibody 150 ng/mL)”, “no binding (tested: OD value <0.5; antibody 150 ng/mL)” and “no binding (tested: 0.2 to 1 nM)”, respectively.

B4: humanized antibody L36H11 (antibody, human IgG1, kappa, V domains shown)
VH: EVQLVESGGGLVQPGGSLRLSCAASGFTFSSFALNWVRQAPGKGLEWVGHIRSKTNNYATFYAASVKDRFTVSRDDSQNTAYLQMNSLKTEDTATYYCVRRGPRDSWFGYWGQGTLVTVSS
VL: DIVMTQSPLSLPVTLGDPASISCRSSQSIVHSNGNTYLEWYQQKPGQSPQLLIYTVSNRFSGVPDRFSGSGSGTDFTLKISRVEAEDLGVYYCFQGSHLPLTFGGGTKVEIKR
notes: VL36/VH11, human IgG1/kappa
Consider B4, for which the binding result in test [1], in test [2], in [3], in test [4], in test [5] and in [6] was “no binding (tested: OD value <0.5; antibody 150 ng/mL)” throughout. Moreover, the binding result in test [7] is reported as “no binding (tested: OD value <0.5; antibody 150 ng/mL)”; in test [8] it was “no binding (tested: OD value <0.5; antibody 150 ng/mL)”; in [9] it was “no binding (tested: 0.2 to 1 nM)”.

B5: humanized antibody L47H64 (antibody, human IgG1, kappa, V domains shown)
VH: EVQLVESGGGLVQPGGSLRLSCAASGFTFNSFALNWVRQAPGKGLEWVVHIRSKTNNYATFYAASVKDRFTVSRDDSQNTAYLQMNSLKTEDTATYYCVRRGPRDSWFGYWGQGTLVTVSS
VL: DIVMTQSPLSLPVTLGDPASISCRSSQSIVHSNGNTYLEWYQQKPGQSPQRLIYTVSNRFSGVPDRFSGSGSGTDFTLKISRVEAEDLGVYYCFQGSHLPLTFGGGTKVEIKR
notes: VL47/VH64, human IgG1/kappa
For the molecule B5, the binding result in test [1], in [2], in test [3], in [4], in [5] and in test [6] was “no binding (tested: OD value <0.5; antibody 150 ng/mL)” throughout. Further, the binding result in test [7] and in [8] was “no binding (tested: OD value <0.5; antibody 150 ng/mL)” in each case.
